According to US20250304677A1 (VIB VZW, published 2025):
Where “and” joins values, the source holds several entries; their conditions need not be identical. Identical values can stand only once.

Tests used:
[1] = biological target: T1, mouse folate receptor alpha (mFRα), recombinant protein (mouse, UniProt P35846 25-232); experiment: BLI, Avi-biotinylated FRα
T1 construct: Bought recombinant proteins (e.g. biotinylated, Acro Biosystems FO1-M82E9); also called mFOLR1; Ms FOLR1
Protocol: (§1) Purified VHHs ^{∘}100 nM) were analysed for binding to avi-tagged biotinylated FRα protein captured on streptavidin-biosensors via BLI.
(§2) Off-rates of purified variants were determined to human, mouse, and cynomolgus FRα in BLI. In addition, binding of the affinity optimised variants to cell-expressed human FRα on HeLa cells was determined by flow cytometry ^{∘}FIG. 10 B).

[2] = biological target: T2, human folate receptor alpha (hFRα), recombinant protein (human, UniProt P15328 25-233); experiment: BLI, Avi-biotinylated FRα
T2 construct: Bought recombinant proteins (His-tagged, or biotinylated via Avi-tag, e.g. AcroBiosystems FO1-H82E2, F01-H52H1); also called hFOLR1; huFOLR1
Protocol: as §1, §2

[3] = biological target: T3, human folate receptor alpha expressed on cells (transfected HEK293T, HeLa, MCF7, MDA-MB-231) (human, UniProt P15328 25-234); experiment: flow cytometry on HeLa cells, anti-Flag detection
T3 construct: HEK293T transiently transfected with human FOLR1; also called native human FRα; cell-expressed human FOLR1
Protocol: EC₅₀ values are found in Table 9. Detection of VHH cell binding was done through anti-Flag M2 mIgG1 followed by anti-mFc-PE in flow cytometry. Results are depicted as mean fluorescence intensity ^{∘}MFI).
as §2

[4] = biological target: T4, cynomolgus folate receptor alpha, recombinant (cynomolgus, UniProt A0A2K5U044 25-233); experiment: BLI, purified VHH
T4 construct: also called cyFOLR1; cynomolgus FRα
Method in brief: (§3)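 Affinity-optimised VHH variants were produced as flag3-His6-tagged proteins in TG-1 E. coli at 0.5 L scale. They were purified from the periplasmic fraction on Ni Sepharose FastFlow columns, desalted, and checked for purity by SDS-PAGE. Off-rates to human, mouse and cynomolgus folate receptor alpha were then determined by biolayer interferometry.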

[5] = biological target: T1, mouse folate receptor alpha (mFRα), …; experiment: BLI, purified VHH
Method in brief: as §3

[6] = biological target: T2, human folate receptor alpha (hFRα), …; experiment: BLI, purified VHH
Method in brief: as §3

[7] = biological target: T1, mouse folate receptor alpha (mFRα), …; experiment: BLI
Method in brief: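 Biolayer interferometry was used to measure off-rates, with biotinylated human and mouse folate receptor alpha immobilised on streptavidin biosensors, and koff was calculated from the data. The fit used a 1:1 binding model. Each variant's fold change is taken against its own wild-type VHH: wild-type koff divided by variant koff when the variant's off-rate is better, and the negative of variant koff divided by wild-type koff when it is worse.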

T4 sequence (A0A2K5U044 entry or part of it): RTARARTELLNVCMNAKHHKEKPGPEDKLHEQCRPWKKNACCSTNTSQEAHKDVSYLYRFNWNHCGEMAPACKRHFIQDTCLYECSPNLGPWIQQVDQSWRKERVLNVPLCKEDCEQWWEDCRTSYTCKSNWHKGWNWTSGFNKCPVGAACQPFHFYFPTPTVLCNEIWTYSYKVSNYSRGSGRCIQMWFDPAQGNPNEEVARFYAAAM
T2 sequence (P15328 25-233 limits assumed): as the sequence (A0A2K5U044 entry or part of it) above, with T2I, R4W, K37R, P146A, Y171H counted along it
T1 sequence (P35846 25-232 limits assumed): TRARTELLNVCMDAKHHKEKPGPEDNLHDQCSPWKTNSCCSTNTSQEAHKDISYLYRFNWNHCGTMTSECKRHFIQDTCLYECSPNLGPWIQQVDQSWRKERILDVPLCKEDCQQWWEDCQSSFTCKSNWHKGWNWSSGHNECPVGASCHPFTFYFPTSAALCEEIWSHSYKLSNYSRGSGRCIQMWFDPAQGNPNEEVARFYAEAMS
T3 sequence (P15328 25-234 limits assumed): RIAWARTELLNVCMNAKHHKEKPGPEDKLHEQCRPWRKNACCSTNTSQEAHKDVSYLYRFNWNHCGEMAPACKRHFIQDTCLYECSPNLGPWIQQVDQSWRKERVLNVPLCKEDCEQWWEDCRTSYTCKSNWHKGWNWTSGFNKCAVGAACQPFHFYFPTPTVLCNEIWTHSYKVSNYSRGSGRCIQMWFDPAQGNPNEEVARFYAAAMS

| Binder | koff [1] | koff [2] | EC50 [3] [nM] | MFI top [3] [MFI] | koff [4] [s⁻¹] | koff [5] [s⁻¹] | koff [6] [s⁻¹] | koff [7] [s⁻¹] | nm (Fold wt) [7] |
| --- | --- | --- | --- | --- | --- | --- | --- | --- | --- |
| P01500019: 2HF09(Q1E, Q5V, A14P, G26E, G28P, I51V, G54H, D72E, N73G, L79Y, K83R, Q108L)-HIS6 (VHH, Entry includes the tag; also called P0150019; P01500001[G26E, G28P, D72E, N73G]) VHH: EVQLVESGGGLVQPGGSLRLSCAASESPFSGMIMGWYRQAPGKQRELVATVTSHGTTNYADSVKGRFTISREGAKNTVYLQMNSLRPEDTAVYYCNAHFPGIYWGKGTLVTVSS | 8.33e-05 s⁻¹ | 0.000206 s⁻¹ | – | – | – | – | – | – | – |
| P01500042: P01500001(G28T, S30I)-FLAG3-HIS6 (VHH, also called P0150042) VHH: EVQLVESGGGLVQPGGSLRLSCAASGSTFIGMIMGWYRQAPGKQRELVATVTSHGTTNYADSVKGRFTISRDNAKNTVYLQMNSLRPEDTAVYYCNAHFPGIYWGKGTLVTVSS | 0.00038 s⁻¹ | 0.00338 s⁻¹ | 5.19 | 54700 | 0.00038 | 0.00038 | 0.00274 | – | – |
| P01500058: P01500001(G26E, G28P)-FLAG3-HIS6 (VHH, also called P0150058) VHH: EVQLVESGGGLVQPGGSLRLSCAASESPFSGMIMGWYRQAPGKQRELVATVTSHGTTNYADSVKGRFTISRDNAKNTVYLQMNSLRPEDTAVYYCNAHFPGIYWGKGTLVTVSS | 0.000484 s⁻¹ | 0.00285 s⁻¹ | – | – | 0.00369 | 0.000484 | 0.00318 | – | – |
| P01500050: P01500001(G28T, D72P)-FLAG3-HIS6 (VHH, also called P0150050) VHH: EVQLVESGGGLVQPGGSLRLSCAASGSTFSGMIMGWYRQAPGKQRELVATVTSHGTTNYADSVKGRFTISRPNAKNTVYLQMNSLRPEDTAVYYCNAHFPGIYWGKGTLVTVSS | 0.000168 s⁻¹ | 0.00128 s⁻¹ | 3.61 | 62500 | 0.00109 | 0.000168 | 0.00105 | – | – |
| P01500045: P01500001(G26E, I33L)-FLAG3-HIS6 (VHH, also called P0150045) VHH: EVQLVESGGGLVQPGGSLRLSCAASESGFSGMLMGWYRQAPGKQRELVATVTSHGTTNYADSVKGRFTISRDNAKNTVYLQMNSLRPEDTAVYYCNAHFPGIYWGKGTLVTVSS | 0.00036 s⁻¹ | 0.00187 s⁻¹ | 4.71 | 58900 | 0.00036 | 0.00036 | 0.00157 | – | – |
| P01500049: P01500001(G26E)-FLAG3-HIS6 (VHH, also called P0150049) VHH: EVQLVESGGGLVQPGGSLRLSCAASESGFSGMIMGWYRQAPGKQRELVATVTSHGTTNYADSVKGRFTISRDNAKNTVYLQMNSLRPEDTAVYYCNAHFPGIYWGKGTLVTVSS | 0.000826 s⁻¹ | 0.00648 s⁻¹ | 10.9 | 46600 | 0.000393 | 0.00105 | 0.00569 | – | – |
| P01500055: P01500001(V51R, D72E, N73G)-FLAG3-HIS6 (VHH, also called P0150055) VHH: EVQLVESGGGLVQPGGSLRLSCAASGSGFSGMIMGWYRQAPGKQRELVATRTSHGTTNYADSVKGRFTISREGAKNTVYLQMNSLRPEDTAVYYCNAHFPGIYWGKGTLVTVSS | 2.4e-05 s⁻¹ | 0.000382 s⁻¹ | 3.77 | 59000 | 4.24e-05 | 2.4e-05 | 0.000382 | – | – |
| P01500046: P01500001(N73P)-FLAG3-HIS6 (VHH, also called P0150046) VHH: EVQLVESGGGLVQPGGSLRLSCAASGSGFSGMIMGWYRQAPGKQRELVATVTSHGTTNYADSVKGRFTISRDPAKNTVYLQMNSLRPEDTAVYYCNAHFPGIYWGKGTLVTVSS | 0.000777 s⁻¹ and 0.000731 s⁻¹ | 0.00371 s⁻¹ and 0.004 s⁻¹ | 6.91 | 50800 | 0.0036 | 0.000754 | 0.00361 | – | – |
| P01500047: P01500001(G26E, G28T, S30I, I33L)-FLAG3-HIS6 (VHH, also called P0150047) VHH: EVQLVESGGGLVQPGGSLRLSCAASESTFIGMLMGWYRQAPGKQRELVATVTSHGTTNYADSVKGRFTISRDNAKNTVYLQMNSLRPEDTAVYYCNAHFPGIYWGKGTLVTVSS | 0.000219 s⁻¹ | 0.00119 s⁻¹ | 3.19 | 59100 | 0.000219 | 0.000219 | 0.000971 | – | – |
| P01500052: P01500001(V51R, D72E)-FLAG3-HIS6 (VHH, also called P0150052) VHH: EVQLVESGGGLVQPGGSLRLSCAASGSGFSGMIMGWYRQAPGKQRELVATRTSHGTTNYADSVKGRFTISRENAKNTVYLQMNSLRPEDTAVYYCNAHFPGIYWGKGTLVTVSS | 0.000246 s⁻¹ | 0.0018 s⁻¹ | 4.35 | 53900 | 0.00281 | 0.000246 | 0.00146 | – | – |
| P01500053: P01500001(S30I, I33L, N73P)-FLAG3-HIS6 (VHH, also called P0150053) VHH: EVQLVESGGGLVQPGGSLRLSCAASGSGFIGMLMGWYRQAPGKQRELVATVTSHGTTNYADSVKGRFTISRDPAKNTVYLQMNSLRPEDTAVYYCNAHFPGIYWGKGTLVTVSS | 0.000167 s⁻¹ and 0.000214 s⁻¹ | 0.000922 s⁻¹ and 0.00105 s⁻¹ | 2.63 | 51200 | 0.000167 | 0.000191 | 0.000943 | – | – |
| P01500051: P01500001(D72E, N73G)-FLAG3-HIS6 (VHH, also called P0150051) VHH: EVQLVESGGGLVQPGGSLRLSCAASGSGFSGMIMGWYRQAPGKQRELVATVTSHGTTNYADSVKGRFTISREGAKNTVYLQMNSLRPEDTAVYYCNAHFPGIYWGKGTLVTVSS | 4.99e-05 s⁻¹ and 8.33e-05 s⁻¹ | 0.000474 s⁻¹ and 0.000555 s⁻¹ | 3.31 | 61000 | 0.00078 | 8.41e-05 | 0.000546 | – | – |
| P01500082: P0150001 with A24V, S27L, M32I (VHH) VHH: EVQLVESGGGLVQPGGSLRLSCAVSGLGFSGIIMGWYRQAPGKQRELVATVTSHGTTNYADSVKGRFTISRDNAKNTVYLQMNSLRPEDTAVYYCNAHFPGIYWGKGTLVTVSS | – | – | – | – | – | – | – | 0.0618 | 38 |
| P01500054: P01500001(I33L, N73P)-FLAG3-HIS6 (VHH, also called P0150054) VHH: EVQLVESGGGLVQPGGSLRLSCAASGSGFSGMLMGWYRQAPGKQRELVATVTSHGTTNYADSVKGRFTISRDPAKNTVYLQMNSLRPEDTAVYYCNAHFPGIYWGKGTLVTVSS | 0.000147 s⁻¹ | 0.000937 s⁻¹ | 5.18 | 55800 | 0.000147 | 0.000147 | 0.000968 | – | – |
| P01500059: P01500001(G26E, D72E)-FLAG3-HIS6 (VHH, also called P0150059) VHH: EVQLVESGGGLVQPGGSLRLSCAASESGFSGMIMGWYRQAPGKQRELVATVTSHGTTNYADSVKGRFTISRENAKNTVYLQMNSLRPEDTAVYYCNAHFPGIYWGKGTLVTVSS | 0.000292 s⁻¹ | 0.0019 s⁻¹ | – | – | 0.000292 | 0.000333 | 0.00204 | – | – |
| P01500041: P01500001(D72P, N73G)-FLAG3-HIS6 (VHH, also called P0150041) VHH: EVQLVESGGGLVQPGGSLRLSCAASGSGFSGMIMGWYRQAPGKQRELVATVTSHGTTNYADSVKGRFTISRPGAKNTVYLQMNSLRPEDTAVYYCNAHFPGIYWGKGTLVTVSS | 0.000191 s⁻¹ | 0.00113 s⁻¹ | 4.2 | 63000 | 0.00014 | 0.00014 | 0.00094 | – | – |
| P01500048: P01500001(S30I, D72P)-FLAG3-HIS6 (VHH, also called P0150048) VHH: EVQLVESGGGLVQPGGSLRLSCAASGSGFIGMIMGWYRQAPGKQRELVATVTSHGTTNYADSVKGRFTISRPNAKNTVYLQMNSLRPEDTAVYYCNAHFPGIYWGKGTLVTVSS | 0.000142 s⁻¹ | 0.00147 s⁻¹ | 2.46 | 59800 | 0.00133 | 0.000142 | 0.0013 | – | – |
| P01500083: P0150001 with A24V, S27L, M32I, N76D (VHH) VHH: EVQLVESGGGLVQPGGSLRLSCAVSGLGFSGIIMGWYRQAPGKQRELVATVTSHGTTNYADSVKGRFTISRDNAKDTVYLQMNSLRPEDTAVYYCNAHFPGIYWGKGTLVTVSS | – | – | – | – | – | – | – | 0.0975 | 60 |
| P01500043: P01500001(G28T, I33L, D72E)-FLAG3-HIS6 (VHH, also called P0150043) VHH: EVQLVESGGGLVQPGGSLRLSCAASGSTFSGMLMGWYRQAPGKQRELVATVTSHGTTNYADSVKGRFTISRENAKNTVYLQMNSLRPEDTAVYYCNAHFPGIYWGKGTLVTVSS | 0.000114 s⁻¹ | 0.000639 s⁻¹ | 2.4 | 60200 | 0.000428 | 0.000114 | 0.000534 | – | – |
| P01500044: P01500001(S30I, D72E, N73G)-FLAG3-HIS6 (VHH, also called P0150044) VHH: EVQLVESGGGLVQPGGSLRLSCAASGSGFIGMIMGWYRQAPGKQRELVATVTSHGTTNYADSVKGRFTISREGAKNTVYLQMNSLRPEDTAVYYCNAHFPGIYWGKGTLVTVSS | 0.000126 s⁻¹ | 0.000555 s⁻¹ | 3.29 | 64100 | 0.000737 | 0.000126 | 0.000464 | – | – |
